The target of experiment [1] is T1, mouse Transferrin Receptor overexpressed on Hek 293 cells (mouse, UniProt Q62351 1-763).
T1 construct: whole, on cells; also called Hek293/mTfR; 293/mTFR
Description: 293/mTFR cell-based assay. How it is done: (§1) Meso-scale Discovery (MSD) Electrochemiluminescesnce (ECL) assays to screen for antibodies or DVDs that bind a desired target antigen expressed on the cell surface were performed as follows: Hek 293 cells overexpressing mouse Transferin Receptor were added onto MSD 96-well plates (MSD Cat# L11 XB-3, lot#2290-EA) which were blocked using blocking buffer (30% FBS Serum (Hyclone) in PBS) at 37° C. for 1 hr. After incubating at RT for 30 min with mild agitation, plates were washed with DPBS 3 times and Abs/DVDs (10,000 ng/ml) were added. After incubating for 1 hr at RT, plates were washed 3 times with DPBS and 25 ul of Goat anti human Sulfo TAG (MSD Cat# R32AC-, Lot# W001162) at 1 μg/ml is added. Following a 1 h incubation at RT for 1 hr, plates are washed and MSD read buffer is added before reading on MSD SECTOR Imager 6000. EC50 values are obtained using Xlfit4 software package

For experiment [2], the target named is Repulsive guidance molecule A. Description: cell-based or functional assay.
The next experiment addresses T2, rmTfR (123-763) (mouse, UniProt Q62351 123-763).
T2 construct: range 123-763; also called recombinant mouse transferrin receptor 123-763
Description: Biacore SPR, DVD-Ig captured via anti-human Fc, rmTfR (123-763) in solution. The procedure:
The BIACORE assay (Biacore, Inc, Piscataway, N.J.) was used to determine the affinity of antibodies or DVD-Ig™ with kinetic measurements of on-rate and off-rate constants. Binding of antibodies or DVD-Ig™ to a target antigen (for example, a purified recombinant target antigen) was determined by surface plasmon resonance-based measurements with a Biacore® 1000 or 3000 instrument (Biacore® AB, Uppsala, Sweden) using running HBS-EP (10 mM HEPES [pH 7.4], 150 mM NaCl, 3 mM EDTA, and 0.005% surfactant P20) at 25° C. All chemicals were obtained from Biacore® AB (Uppsala, Sweden) or otherwise from a different source as described in the text. For example, approximately 5000 RU of goat anti-human IgG, (Fcγ), fragment specific polyclonal antibody (Pierce Biotechnology Inc, Rockford, Ill.) diluted in 10 mM sodium acetate (pH 4.5) was directly immobilized across a CM5 research grade biosensor chip using a standard amine coupling kit according to manufacturer's instructions and procedures at 25 μg/ml. Unreacted moieties on the biosensor surface are blocked with ethanolamine. Modified carboxymethyl dextran surface in flowcell 2 and 4 is used as a reaction surface. Unmodified carboxymethyl dextran without goat anti-human IgG in flow cell 1 and 3 is used as the reference surface. For kinetic analysis, rate equations derived from the 1:1 Langmuir binding model were fitted simultaneously to association and dissociation phases of all eight injections (using global fit analysis) with the use of Biaevaluation 4.0.1 software. Purified antibodies or DVD-Ig™ were diluted in HEPES-buffered saline for capture across goat anti-human IgG specific reaction surfaces. Antibodies or DVD-Ig™ to be captured as a ligand (25 μg/ml) were injected over reaction matrices at a flow rate of 5 μl/min. The association and dissociation rate constants, kon (M⁻¹s⁻¹) and koff (s⁻¹) are determined under a continuous flow rate of 25 μl/min. Rate constants are derived by making kinetic binding measurements at different antigen concentrations ranging from 10-200 nM. The equilibrium dissociation constant (M) of the reaction between antibodies or DVD-Ig™s and the target antigen is then calculated from the kinetic rate constants by the following formula: KD=koff/kon. Binding is recorded as a function of time and kinetic rate constants are calculated.
In general terms: Surface plasmon resonance follows binding to a sensor surface in real time, without labels.

Experiment [3] has as its target T1, mouse Transferrin Receptor …. Description: cell-based MSD-ECL binding on Hek293 cells overexpressing mouse TfR. The procedure:
as §1

We go through eight molecules from patent US20140212423A1 (AbbVie / Abbott, published 2014).

T2 sequence (Q62351 123-763): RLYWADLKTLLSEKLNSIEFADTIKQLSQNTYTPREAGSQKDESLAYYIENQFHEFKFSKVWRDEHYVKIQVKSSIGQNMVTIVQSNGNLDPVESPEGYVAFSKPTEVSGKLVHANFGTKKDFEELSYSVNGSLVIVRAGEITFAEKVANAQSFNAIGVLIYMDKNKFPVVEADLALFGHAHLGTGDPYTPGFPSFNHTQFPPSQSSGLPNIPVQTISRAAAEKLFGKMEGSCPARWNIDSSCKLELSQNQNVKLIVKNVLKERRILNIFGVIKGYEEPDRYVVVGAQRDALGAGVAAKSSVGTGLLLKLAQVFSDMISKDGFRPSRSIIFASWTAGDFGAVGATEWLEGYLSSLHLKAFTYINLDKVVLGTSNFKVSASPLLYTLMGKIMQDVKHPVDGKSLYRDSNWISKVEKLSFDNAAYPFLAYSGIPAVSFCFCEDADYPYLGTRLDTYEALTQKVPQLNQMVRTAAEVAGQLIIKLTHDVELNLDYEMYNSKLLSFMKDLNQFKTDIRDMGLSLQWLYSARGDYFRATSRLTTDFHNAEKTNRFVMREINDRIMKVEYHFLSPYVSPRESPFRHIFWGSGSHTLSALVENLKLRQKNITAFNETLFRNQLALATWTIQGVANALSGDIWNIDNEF
T1 sequence (Q62351 whole entry): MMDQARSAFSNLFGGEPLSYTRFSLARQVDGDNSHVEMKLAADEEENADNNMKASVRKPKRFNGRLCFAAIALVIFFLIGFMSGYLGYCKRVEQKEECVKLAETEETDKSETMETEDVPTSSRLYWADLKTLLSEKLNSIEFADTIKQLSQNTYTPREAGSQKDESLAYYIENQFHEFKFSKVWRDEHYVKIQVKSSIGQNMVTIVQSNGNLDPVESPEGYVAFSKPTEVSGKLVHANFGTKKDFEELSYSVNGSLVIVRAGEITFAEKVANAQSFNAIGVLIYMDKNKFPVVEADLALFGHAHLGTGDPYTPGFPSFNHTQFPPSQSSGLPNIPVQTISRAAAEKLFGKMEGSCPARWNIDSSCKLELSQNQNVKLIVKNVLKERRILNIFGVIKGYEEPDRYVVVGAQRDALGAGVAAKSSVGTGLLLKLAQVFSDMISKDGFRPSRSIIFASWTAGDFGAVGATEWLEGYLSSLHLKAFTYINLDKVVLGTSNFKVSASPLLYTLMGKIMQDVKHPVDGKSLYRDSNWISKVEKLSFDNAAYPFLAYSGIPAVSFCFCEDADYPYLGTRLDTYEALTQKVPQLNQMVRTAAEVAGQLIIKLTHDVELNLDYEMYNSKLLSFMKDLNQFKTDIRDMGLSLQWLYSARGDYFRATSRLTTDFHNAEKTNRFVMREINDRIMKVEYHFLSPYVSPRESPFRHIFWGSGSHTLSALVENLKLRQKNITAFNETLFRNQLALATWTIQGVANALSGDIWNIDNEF

B1: RGMA(AE12-1)-SS-TfR(AB402) (bispecific antibody)
VH: EVQLVQSGAEVKKPGASVKVSCKASGYTFTSHGISWVRQAPGQGLDWMGWISPYSGNTNYAQKLQGRVTMTTDTSTSTAYMELSSLRSEDTAVYYCARVGSGPYYYMDVWGQGTLVTVSSASTKGPEVQLVESGGGLVQPGGSLRLSCAASGFTFSNYGMHWIRQAPGKGLEWIAMIYYDSSKMNYADTVKGRFTISRDNAKNSLYLQMNSLRAEDTAVYYCAVPTSHYVVDVWGQGTTVTVSS
VL: QSALTQPRSVSGSPGQSVTISCTGTSSSVGDSIYVSWYQQHPGKAPKLMLYDVTKRPSGVPDRFSGSKSGNTASLTISGLQAEDEADYYCCSYAGTDTLFGGGTKVTVLGQPKAAPAIQMTQSPSSLSASVGDRVTITCQASQDIGNWLAWYQQKPGKSPKLLIYGATSLADGVPSRFSGSRSGTDFTLTISSLQPEDFATYYCLQAYNTPWTFGGGTKVEIKR
notes: DVD-Ig composed from its name; constant regions not assigned; not shown: short light-chain linker (code S) after a lambda VL
As for B1, the EC50 in experiment [1] came out at 30.9 nM. Also, in experiment [2], the “BMP Assay (EC50, nM)” value came to 0.436 nM.

B2: RGMA(AE12-1)-SS-TfR(AB403) (bispecific antibody)
VH: EVQLVQSGAEVKKPGASVKVSCKASGYTFTSHGISWVRQAPGQGLDWMGWISPYSGNTNYAQKLQGRVTMTTDTSTSTAYMELSSLRSEDTAVYYCARVGSGPYYYMDVWGQGTLVTVSSASTKGPEVQLVESGGGLVQPGGSLRLSCAASGFTFSNYGMHWIRQAPGKGLEWIAMIYYDSSKMNYADTVKGRFTISRDNAKNSLYLQMNSLRAEDTAVYYCAVPTSHYVVDVWGQGTTVTVSS
VL: QSALTQPRSVSGSPGQSVTISCTGTSSSVGDSIYVSWYQQHPGKAPKLMLYDVTKRPSGVPDRFSGSKSGNTASLTISGLQAEDEADYYCCSYAGTDTLFGGGTKVTVLGQPKAAPEIVMTQSPATLSVSPGERATLSCQASQDIGNWLAWYQQKPGQSPRLLIYGATSLADGVPARFSGSRSGTEFTLTISSLQSEDFAVYYCLQAYNTPWTFGGGTKVEIKR
notes: as for B1
In the case of B2, in experiment [1], the EC50 turned out to be 71 nM. For the same molecule, the “BMP Assay (EC50, nM)” value in experiment [2] stood at 1.18 nM.

B3: TfR(AB405)-LL-RGMA(AE12-1) (bispecific antibody)
chain 1: QVQLVQSGAEVKKPGASVKVSCKASGFTFSNYGMHWIRQAPGQGLEWIAMIYYDSSKMNYADTVKGRFTITRDNSTNTLYMELSSLRSEDTAVYYCAVPTSHYVVDVWGQGTTVTVSSASTKGPSVFPLAPEVQLVQSGAEVKKPGASVKVSCKASGYTFTSHGISWVRQAPGQGLDWMGWISPYSGNTNYAQKLQGRVTMTTDTSTSTAYMELSSLRSEDTAVYYCARVGSGPYYYMDVWGQGTLVTVSS
chain 2: EIVMTQSPATLSVSPGERATLSCQASQDIGNWLAWYQQKPGQSPRLLIYGATSLADGVPARFSGSRSGTEFTLTISSLQSEDFAVYYCLQAYNTPWTFGGGTKVEIKRTVAAPSVFIFPPQSALTQPRSVSGSPGQSVTISCTGTSSSVGDSIYVSWYQQHPGKAPKLMLYDVTKRPSGVPDRFSGSKSGNTASLTISGLQAEDEADYYCCSYAGTDTLFGGGTKVTVLG
As to B3, a half-maximal response in experiment [1] (EC50) required 4.44 nM. Moreover, in experiment [2], the “BMP Assay (EC50, nM)” value was found to be 0.701 nM.

B4: TfR(AB404)-LL-RGMA(AE12-1) (bispecific antibody)
chain 1: QVQLVQSGAEVKKPGASVKVSCKASGFTFSNYGMHWIRQAPGQGLEWIAMIYYDSSKMNYADTVKGRFTITRDNSTNTLYMELSSLRSEDTAVYYCAVPTSHYVVDVWGQGTTVTVSSASTKGPSVFPLAPEVQLVQSGAEVKKPGASVKVSCKASGYTFTSHGISWVRQAPGQGLDWMGWISPYSGNTNYAQKLQGRVTMTTDTSTSTAYMELSSLRSEDTAVYYCARVGSGPYYYMDVWGQGTLVTVSS
chain 2: AIQMTQSPSSLSASVGDRVTITCQASQDIGNWLAWYQQKPGKSPKLLIYGATSLADGVPSRFSGSRSGTDFTLTISSLQPEDFATYYCLQAYNTPWTFGGGTKVEIKRTVAAPSVFIFPPQSALTQPRSVSGSPGQSVTISCTGTSSSVGDSIYVSWYQQHPGKAPKLMLYDVTKRPSGVPDRFSGSKSGNTASLTISGLQAEDEADYYCCSYAGTDTLFGGGTKVTVLG
With B4, the EC50 in experiment [1] stood at 3.61 nM. The “BMP Assay (EC50, nM)” value in experiment [2] turned out to be 13.2 nM.

B5: TfR(AB405)-GS-RGMA(AE12-1) (bispecific antibody)
VH: QVQLVQSGAEVKKPGASVKVSCKASGFTFSNYGMHWIRQAPGQGLEWIAMIYYDSSKMNYADTVKGRFTITRDNSTNTLYMELSSLRSEDTAVYYCAVPTSHYVVDVWGQGTTVTVSSGGGGSGGGGSEVQLVQSGAEVKKPGASVKVSCKASGYTFTSHGISWVRQAPGQGLDWMGWISPYSGNTNYAQKLQGRVTMTTDTSTSTAYMELSSLRSEDTAVYYCARVGSGPYYYMDVWGQGTLVTVSS
VL: EIVMTQSPATLSVSPGERATLSCQASQDIGNWLAWYQQKPGQSPRLLIYGATSLADGVPARFSGSRSGTEFTLTISSLQSEDFAVYYCLQAYNTPWTFGGGTKVEIKRGGSGGGGSGQSALTQPRSVSGSPGQSVTISCTGTSSSVGDSIYVSWYQQHPGKAPKLMLYDVTKRPSGVPDRFSGSKSGNTASLTISGLQAEDEADYYCCSYAGTDTLFGGGTKVTVLG
notes: DVD-Ig composed from its name; constant regions not assigned
Consider B5, for which the EC50 in experiment [1] came out at 28.1 nM. Further, the “BMP Assay (EC50, nM)” value in experiment [2] turned out to be 3.12 nM.

B6: DVD2358 (bispecific antibody)
VH: EVQLVESGGGLVQPGGSLRLSCAASGFTFSNYGMHWIRQAPGKGLEWIAMIYYDSSKMNYADTVKGRFTISRDNAKNSLYLQMNSLRAEDTAVYYCAVPTSHYVVDVWGQGTTVTVSSASTKGPEVQLLESGGGLVQPGGSLRLSCAASGFTFSNYGMSWVRQAPGKGLEWVASIRSGGGRTYYSDNVKGRFTISRDNSKNTLYLQMNSLRAEDTAVYYCVRYDHYSGSSDYWGQGTLVTVSS
VL: AIQMTQSPSSLSASVGDRVTITCQASQDIGNWLAWYQQKPGKSPKLLIYGATSLADGVPSRFSGSRSGTDFTLTISSLQPEDFATYYCLQAYNTPWTFGGGTKVEIKRTVAAPDVVMTQSPLSLPVTPGEPASISCKSSQSLLDSDGKTYLNWLLQKPGQSPQRLIYLVSKLDSGVPDRFSGSGSGTDFTLKISRVEAEDVGVYYCWQGTHFPRTFGQGTKVEIKR
notes: DVD-Ig, outer AB402 (TfR), inner AB043 (APP), HG-short/LK-short; dual variable regions only; constant regions not assigned
As for B6, in the experiment with rmTfR (123-763), binding was put at a Kd of 1.3 nM, the koff came to 4.06e-05 s⁻¹ and the kon came out at 31300 M⁻¹ s⁻¹. The same molecule came in with an EC50 in experiment [3] of 0.1 nM.

B7: RGMA(AE12-1)-GS-TfR(AB402) (bispecific antibody)
VH: EVQLVQSGAEVKKPGASVKVSCKASGYTFTSHGISWVRQAPGQGLDWMGWISPYSGNTNYAQKLQGRVTMTTDTSTSTAYMELSSLRSEDTAVYYCARVGSGPYYYMDVWGQGTLVTVSSGGGGSGGGGSEVQLVESGGGLVQPGGSLRLSCAASGFTFSNYGMHWIRQAPGKGLEWIAMIYYDSSKMNYADTVKGRFTISRDNAKNSLYLQMNSLRAEDTAVYYCAVPTSHYVVDVWGQGTTVTVSS
VL: QSALTQPRSVSGSPGQSVTISCTGTSSSVGDSIYVSWYQQHPGKAPKLMLYDVTKRPSGVPDRFSGSKSGNTASLTISGLQAEDEADYYCCSYAGTDTLFGGGTKVTVLGGGSGGGGSGAIQMTQSPSSLSASVGDRVTITCQASQDIGNWLAWYQQKPGKSPKLLIYGATSLADGVPSRFSGSRSGTDFTLTISSLQPEDFATYYCLQAYNTPWTFGGGTKVEIKR
notes: as for B5
For the molecule B7, the EC50 in experiment [1] worked out at 5.36 nM. Also, in experiment [2], the “BMP Assay (EC50, nM)” value worked out at 0.014 nM.

B8: RGMA(AE12-1)-GS-TfR(AB403) (bispecific antibody)
VH: EVQLVQSGAEVKKPGASVKVSCKASGYTFTSHGISWVRQAPGQGLDWMGWISPYSGNTNYAQKLQGRVTMTTDTSTSTAYMELSSLRSEDTAVYYCARVGSGPYYYMDVWGQGTLVTVSSGGGGSGGGGSEVQLVESGGGLVQPGGSLRLSCAASGFTFSNYGMHWIRQAPGKGLEWIAMIYYDSSKMNYADTVKGRFTISRDNAKNSLYLQMNSLRAEDTAVYYCAVPTSHYVVDVWGQGTTVTVSS
VL: QSALTQPRSVSGSPGQSVTISCTGTSSSVGDSIYVSWYQQHPGKAPKLMLYDVTKRPSGVPDRFSGSKSGNTASLTISGLQAEDEADYYCCSYAGTDTLFGGGTKVTVLGGGSGGGGSGEIVMTQSPATLSVSPGERATLSCQASQDIGNWLAWYQQKPGQSPRLLIYGATSLADGVPARFSGSRSGTEFTLTISSLQSEDFAVYYCLQAYNTPWTFGGGTKVEIKR
notes: DVD-Ig composed from its name; constant regions not assigned; also called RGMA (AE12-1)-GS-AB403 DVD-Ig
Regarding B8, the EC50 in experiment [1] came to 4.3 nM. Further, the “BMP Assay (EC50, nM)” value in experiment [2] was less than 0.025 nM.

As a reminder, the EC50 is the midpoint of the concentration-response curve. By Kd is commonly meant a measure of binding affinity in units of concentration. A high value points to weaker binding. Broadly, the koff is a measure of how fast the partners let go of each other. The low end stands for slow dissociation, the high end for fast dissociation. Broadly, the kon is the rate constant with which the complex forms. Read a high kon as faster complex formation.
